Consider one substance from patent US20250025535A1, “A COMPOSITION COMPRISING NANOSIZED ACTIVE PHARMACEUTICAL INGREDIENT” (NANOFORM FINLAND OYJ, priority 2021, published 2025).

The data set in a line: Sedimentation of insulin suspension in fish oil. Format: physicochemical. The conditions noted are these: 10 mg in 1 ml fish oil, room temperature, t=0, 30 min, 60 min, 24 h; compared with bulk insulin. The method, then: A: t=0 min; B: t=30 min; C: t=60 min; D: t=24 h.
Nanosized insulin or bulk insulin (10 mg, Sigma) was added to 1 ml of fish oil, mixed by vortexing and allowed to stand at room temperature.

With insulin [nanosized insulin], the “sedimentation in fish oil as a function of time” value is given as “significantly slower”.
